Measured values reported in patent US20200157190A1.

How the values were obtained:
Antigen 1 [1] = assay: ELISA, supernatant 1 TO 16, Plate 1 (Antigen 1), column 3, BLANK 0.07
Antigen 2 [2] = assay: ELISA, supernatant 1 TO 4, Plate 2 (Antigen 2), column 3, BLANK 0.06
Antigen 1 [3] = assay: ELISA, supernatant 1 TO 4096, Plate 1 (Antigen 1), column 3, BLANK 0.07
Antigen 2 [4] = assay: ELISA, supernatant 1 TO 1024, Plate 2 (Antigen 2), column 3, BLANK 0.06
Antigen 2 [5] = assay: ELISA, supernatant 1 TO 4096, Plate 2 (Antigen 2), column 3, BLANK 0.06
Antigen 1 [6] = assay: ELISA, supernatant 1 TO 256, Plate 1 (Antigen 1), column 3, BLANK 0.07
Antigen 1 [7] = assay: ELISA, supernatant UNDILUTED, Plate 1 (Antigen 1), column 3, BLANK 0.07
Antigen 2 [8] = assay: ELISA, supernatant 1 TO 256, Plate 2 (Antigen 2), column 3, BLANK 0.06
Antigen 1 [9] = assay: ELISA, supernatant 1 TO 1024, Plate 1 (Antigen 1), column 3, BLANK 0.07
Antigen 1 [10] = assay: ELISA, supernatant 1 TO 64, Plate 1 (Antigen 1), column 3, BLANK 0.07
Antigen 2 [11] = assay: ELISA, supernatant 1 TO 16, Plate 2 (Antigen 2), column 3, BLANK 0.06
Antigen 2 [12] = assay: ELISA, supernatant 1 TO 64, Plate 2 (Antigen 2), column 3, BLANK 0.06
Antigen 1 [13] = assay: ELISA, supernatant 1 TO 4, Plate 1 (Antigen 1), column 3, BLANK 0.07
Antigen 2 [14] = assay: ELISA, supernatant UNDILUTED, Plate 2 (Antigen 2), column 3, BLANK 0.06

ELISA plate reading (Antigen 1 [1]): 0.16
ELISA plate reading (Antigen 2 [2]): 1.81
ELISA plate reading (Antigen 1 [3]): 0.08
ELISA plate reading (Antigen 2 [4]): 0.21
ELISA plate reading (Antigen 2 [5]): 0.14
ELISA plate reading (Antigen 1 [6]): 0.07
ELISA plate reading (Antigen 1 [7]): 0.66
ELISA plate reading (Antigen 2 [8]): 0.52
ELISA plate reading (Antigen 1 [9]): 0.06
ELISA plate reading (Antigen 1 [10]): 0.1
ELISA plate reading (Antigen 2 [11]): 1.61
ELISA plate reading (Antigen 2 [12]): 1.24
ELISA plate reading (Antigen 1 [13]): 0.45
ELISA plate reading (Antigen 2 [14]): 2.49
B1: Heavy Chain Construct 4 with Light Chain Construct 2 (VH2-VH1/VL2) (antibody)
heavy: QSLEESGGRLVSPGTPLTLTCTASGFSLSSNAMGWVRQAPGEGLEYIGIIRPGGSTYYASWAKGRFTISKTSSTTVDLKMTSLTTEDTATYFCARAWDIWGPGTLVTVSLGQPKAPSVFPLAPCCGDTPSSTVTLGCLVKGYLPEPVTVTWNSGTLTNGVRTFPSVRQSSGLYSLSSVVSVTSSSQPVTCNVAHPATNTKVDKTVAPSTCSKPTCPPPELLGGRPQPQPQPQPQPQPQPQPQPQPQPQPQPQPQPQSRQSVEESGGRLVTPGTPLTLTCTVSGFSLNTNAIRWVRQAPGKGLEWIGAIDASGNTYYASWAKGRFTISKTSTTVDLKITSPTTEDTATYFCNRFNTANIWGPGTLVTVSSGQPKAPSVFPLAPCCGDTPSSTVTLGCLVKGYLPEPVTVTWNSGTLTNGVRTFPSVRQSSGLYSLSSVVSVTSSSQPVTCNVAHPATNTKVDKTVAPSTCSKPTCPPPELLGGPSVFIFPPKPKDTLMISRTPEVTCVVVDVSQDDPEVQFTWYINNEQVRTARPPLREQQFNSTIRVVSTLPIAHQDWLRGKEFKCKVHNKALPAPIEKTISKARGQPLEPKVYTMGPPREELSSRSVSLACMINGFYPSDISVEWEKNGKAEDNYKTTPAVLDSDGSYFLYSKLSVPTSEWQRGDVFTCSVMHEALHNHYTQKSISRSPGK
light: AFELTQTPSSVEAAVGGTVTIRCQASQSISNQLSWYQQKPGQPPKRLIYRASTLASGVPARFKGSGSGTAFTLTISDLECADGATYYCQSFYYTDVIDYNAFGGGTEVVVTGDPVAPTVLIFPPAADQVATGTVTIVCVANKYFPDVTVTWEVDGTTQTTGIENSKTPQNSADCTYNLSSTLTLTSTQYNSHKEYTCKVTQGTTSVVQSFNRGDC
